Experimental data reported in publication PMC10086132, “Riboflavin kinase and pyridoxine 5′-phosphate oxidase complex formation envisages transient interactions for FMN cofactor delivery” (Frontiers in Molecular Biosciences, 2023).
Blank lines part the entries; values can stand above or below the molecule they belong to.

Assays:
[1] = target: T1, RFK (riboflavin kinase; hRFK when loaded with FMN:ADP:Mg2+) (Homo sapiens, UniProt Q969G6); experiment: thermal unfolding followed by Trp and FMN fluorescence; type: binding; settings: FMN bound together with ADP:Mg2+ (hRFK) versus ligand-free RFK; 20 mM PIPES pH 7.0
T1 construct: recombinant, purified in apo-form by a previously described procedure
T1 sequence (Q969G6 1-155): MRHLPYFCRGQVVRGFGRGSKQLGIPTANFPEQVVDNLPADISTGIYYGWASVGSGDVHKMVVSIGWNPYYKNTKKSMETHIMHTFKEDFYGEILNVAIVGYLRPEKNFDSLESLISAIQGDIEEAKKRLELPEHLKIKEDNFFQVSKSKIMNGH

[2] = target: T2, PNPOx (pyridoxine-5′-phosphate oxidase; aPNPOx for the apo-form) (Homo sapiens, UniProt Q9NVS9); experiment: as above; type: binding; settings: holo-form versus apo-form; 20 mM PIPES pH 7.0
T2 construct: gene PNPO; pET28a(+) in Escherichia coli, HisTrap-purified, tag removal not mentioned; homodimer; FMN removed for the apo-form
T2 sequence (Q9NVS9 1-261): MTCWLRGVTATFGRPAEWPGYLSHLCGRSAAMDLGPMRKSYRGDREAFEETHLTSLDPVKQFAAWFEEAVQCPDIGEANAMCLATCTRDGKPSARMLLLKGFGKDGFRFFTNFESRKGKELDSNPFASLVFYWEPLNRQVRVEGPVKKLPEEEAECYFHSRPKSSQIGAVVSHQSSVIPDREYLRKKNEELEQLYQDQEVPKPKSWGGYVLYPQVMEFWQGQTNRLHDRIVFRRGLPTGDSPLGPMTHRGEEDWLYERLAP

[3] = target: T2, PNPOx (pyridoxine-5′-phosphate oxidase; aPNPOx for the apo-form); experiment: stopped-flow flavin fluorescence quenching; type: binding; settings: faster of two association processes, 20 mM PIPES pH 7.0, 0.3 mM MgCl2, 25 °C
[4] = substrate: Cc1cc2nc3c(=O)[nH]c(=O)nc-3n(C[C@H](O)[C@H](O)[C@H](O)CO)c2cc1C; experiment: purified protein; settings: no aPNPOx, 400 µM ATP, 0.3 mM MgCl2, 20 mM PIPES pH 7.0, 25 °C
[5] = target: T3, RFK (Homo sapiens, UniProt Q969G6); experiment: ITC
T3 chain: T1 sequence (Q969G6 1-155)

[6] = target: T3, RFK; experiment: stopped-flow fluorescence

increase of Tm [1]: ~ 32 °C | k on1 ^FMN [3]: 340000 ± 20000 M⁻¹ s⁻¹
Molecule: Cc1cc2nc3c(=O)[nH]c(=O)nc-3n(C[C@H](O)[C@H](O)[C@H](O)COP(=O)(O)O)c2cc1C [FMN]
increase of Tm [2]: Both proteins were considerably less stable in apo-forms regarding their respective holo-forms

B1: RFK (riboflavin kinase; hRFK when loaded with FMN:ADP:Mg2+) (Homo sapiens) (protein)
chain: T1 sequence (Q969G6 1-155)
Km [4]: 2.2 ± 0.3 µM | kcat [4]: 1 s⁻¹ | kcat/Km [4]: 450000 M⁻¹ s⁻¹

Kd [5]: 14000 nM
B2: PNPOx (protein)
chain: T2 sequence (Q9NVS9 1-261)
modifications: apo-PNPOx homodimer; ligand-free RFK

Kd [5]: 130 nM
B3: PNPOx (protein)
chain: T2 sequence (Q9NVS9 1-261)
modifications: holo-PNPOx homodimer with FMN; RFK loaded with FMN and ADP:Mg2+; first binding site

Kd [6]: ~1000 nM | Kd [5]: 900 nM
B4: PNPOx (protein)
chain: T2 sequence (Q9NVS9 1-261)
modifications: apo-PNPOx homodimer; RFK loaded with FMN and ADP:Mg2+
